Results published in PMC6144812.
Changes are numbered by the printed parent chain.

How the values were obtained:
Test in all cases: EMSA
[1] = target: T1, nPfh1 (nuclear isoform, wild-type) (Schizosaccharomyces pombe, UniProt Q9UUA2-2 1-785)
T1 sequence: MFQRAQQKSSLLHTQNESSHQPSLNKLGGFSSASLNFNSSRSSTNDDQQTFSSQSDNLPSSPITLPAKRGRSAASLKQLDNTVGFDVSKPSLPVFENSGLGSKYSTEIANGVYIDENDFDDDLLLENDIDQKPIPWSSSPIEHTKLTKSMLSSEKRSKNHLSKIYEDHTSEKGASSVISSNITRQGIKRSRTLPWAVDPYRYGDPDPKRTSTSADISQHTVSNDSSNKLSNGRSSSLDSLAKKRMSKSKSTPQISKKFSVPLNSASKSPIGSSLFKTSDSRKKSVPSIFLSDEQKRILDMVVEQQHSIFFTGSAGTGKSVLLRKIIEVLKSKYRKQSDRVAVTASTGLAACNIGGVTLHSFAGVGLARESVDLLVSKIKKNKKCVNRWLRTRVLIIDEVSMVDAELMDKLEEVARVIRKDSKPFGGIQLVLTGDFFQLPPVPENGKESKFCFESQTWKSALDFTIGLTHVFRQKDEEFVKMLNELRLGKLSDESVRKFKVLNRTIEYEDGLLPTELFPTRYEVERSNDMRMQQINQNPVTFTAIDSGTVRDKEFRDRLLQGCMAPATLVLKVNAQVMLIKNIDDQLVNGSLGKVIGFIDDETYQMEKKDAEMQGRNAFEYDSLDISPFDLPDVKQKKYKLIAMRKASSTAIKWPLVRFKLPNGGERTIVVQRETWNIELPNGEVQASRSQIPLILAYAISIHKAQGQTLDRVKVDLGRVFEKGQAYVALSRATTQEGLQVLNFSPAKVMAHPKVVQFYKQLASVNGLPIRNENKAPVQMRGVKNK

nPfh1-Δ21 = target: T2, nPfh1-Δ21 (Schizosaccharomyces pombe, UniProt Q9UUA2-2 1-785, del408-428)
T2 sequence: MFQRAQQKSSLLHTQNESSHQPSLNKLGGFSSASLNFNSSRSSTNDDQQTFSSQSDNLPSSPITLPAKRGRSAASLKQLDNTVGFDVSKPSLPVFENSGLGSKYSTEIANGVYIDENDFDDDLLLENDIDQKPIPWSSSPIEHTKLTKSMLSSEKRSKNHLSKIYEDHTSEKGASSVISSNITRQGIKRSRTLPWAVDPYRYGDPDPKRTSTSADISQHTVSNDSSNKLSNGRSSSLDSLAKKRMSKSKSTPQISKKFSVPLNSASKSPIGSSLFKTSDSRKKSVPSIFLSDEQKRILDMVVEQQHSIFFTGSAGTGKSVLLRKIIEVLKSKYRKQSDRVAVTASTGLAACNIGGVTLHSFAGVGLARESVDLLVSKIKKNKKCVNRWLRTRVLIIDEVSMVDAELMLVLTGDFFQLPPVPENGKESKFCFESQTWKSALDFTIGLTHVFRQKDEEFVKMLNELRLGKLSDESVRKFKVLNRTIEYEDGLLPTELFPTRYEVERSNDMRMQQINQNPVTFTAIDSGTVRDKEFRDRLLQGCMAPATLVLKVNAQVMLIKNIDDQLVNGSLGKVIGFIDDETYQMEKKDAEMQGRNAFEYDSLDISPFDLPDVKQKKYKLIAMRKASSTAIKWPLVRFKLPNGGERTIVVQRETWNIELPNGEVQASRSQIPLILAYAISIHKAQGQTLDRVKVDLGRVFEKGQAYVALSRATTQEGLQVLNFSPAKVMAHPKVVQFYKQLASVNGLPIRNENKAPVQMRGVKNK

nPfh1-L430P = target: T3, nPfh1-L430P (Schizosaccharomyces pombe, UniProt Q9UUA2-2 1-785, L410P)
T3 sequence: T1 sequence with L410P

nPfh1-L430A = target: T4, nPfh1-L430A (Schizosaccharomyces pombe, UniProt Q9UUA2-2 1-785, L410A)
T4 sequence: T1 sequence with L410A

B1: Duplex DNA/DNA (dsDNA)
DNA 1: TTAAGCACGTCCGTACCATCGA
DNA 2: TCGATGGTACGGACGTGCTTAA
B1: no binding [1].

B2: 3'-5' DNA/DNA partial duplex (dsDNA)
DNA 1: TCGATGGTACGGACGTGCTTAAAGAAAAAAAAAA
DNA 2: TCGATGGTACGGACGTGCTTAA
B2: no binding [1].

B3: Y-fork (dsDNA)
DNA 1: AAAAAAAAAAGATTAAGCACGTCCGTACCATCGA
DNA 2: B2 DNA 1
For B3, the binding signal (nPfh1-Δ21) was under 5 % bound, the binding signal (nPfh1-L430P) was under 5 % bound and the binding signal (nPfh1-L430A) was under 5 % bound.
